Decrease of the PPI signal with 5'-FAM-SBE4 Mut dsDNA against WT dsDNA and reduction of the PPI signal against SMAD4 WT data for one molecule are collected here from article doi:10.1101/2023.07.15.549169.

Assay in all cases: AlphaScreen or HTRF
Conditions in all cases: remark: other sources report otherwise
(Alpha assays give light when donor and acceptor beads are brought close together.)

Assay [1] deals with T1, His-tagged SMAD4 WT (Mothers against decapentaplegic homolog 4), Q13485.
T1 chain: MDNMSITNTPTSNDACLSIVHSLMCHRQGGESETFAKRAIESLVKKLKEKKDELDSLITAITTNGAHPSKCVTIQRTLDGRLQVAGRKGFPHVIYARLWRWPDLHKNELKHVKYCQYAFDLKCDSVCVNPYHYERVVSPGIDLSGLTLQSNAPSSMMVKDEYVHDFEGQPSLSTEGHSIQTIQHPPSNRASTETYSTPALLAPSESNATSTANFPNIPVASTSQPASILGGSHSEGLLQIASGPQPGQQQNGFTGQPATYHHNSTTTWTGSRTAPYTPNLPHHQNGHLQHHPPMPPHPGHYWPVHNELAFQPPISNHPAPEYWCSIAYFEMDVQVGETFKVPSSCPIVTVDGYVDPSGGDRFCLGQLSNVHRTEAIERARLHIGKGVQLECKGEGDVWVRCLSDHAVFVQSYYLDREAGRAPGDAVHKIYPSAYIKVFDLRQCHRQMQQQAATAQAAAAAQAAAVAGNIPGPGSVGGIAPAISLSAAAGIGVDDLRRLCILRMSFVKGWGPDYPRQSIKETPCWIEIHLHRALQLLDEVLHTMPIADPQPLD

Assay [2] has as its target T2, His-tagged SMAD4 R361C, Q13485.
T2 chain: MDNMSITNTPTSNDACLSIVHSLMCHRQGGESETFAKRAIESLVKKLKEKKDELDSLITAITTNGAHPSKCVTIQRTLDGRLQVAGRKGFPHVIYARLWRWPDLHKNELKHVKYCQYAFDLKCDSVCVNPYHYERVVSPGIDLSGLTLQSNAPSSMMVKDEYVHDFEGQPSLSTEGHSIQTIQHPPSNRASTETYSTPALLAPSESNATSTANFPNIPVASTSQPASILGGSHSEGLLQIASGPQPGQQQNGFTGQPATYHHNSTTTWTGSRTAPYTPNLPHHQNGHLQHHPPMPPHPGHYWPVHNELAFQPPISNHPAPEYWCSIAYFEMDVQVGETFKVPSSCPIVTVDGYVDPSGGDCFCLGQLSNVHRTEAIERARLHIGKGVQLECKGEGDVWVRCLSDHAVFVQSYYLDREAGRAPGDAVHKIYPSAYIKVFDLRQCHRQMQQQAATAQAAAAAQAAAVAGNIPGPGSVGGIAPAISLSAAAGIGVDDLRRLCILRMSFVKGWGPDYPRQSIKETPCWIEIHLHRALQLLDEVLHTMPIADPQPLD

For assay [3], the target named is T3, His-tagged SMAD4 R361H, Q13485.
T3 chain: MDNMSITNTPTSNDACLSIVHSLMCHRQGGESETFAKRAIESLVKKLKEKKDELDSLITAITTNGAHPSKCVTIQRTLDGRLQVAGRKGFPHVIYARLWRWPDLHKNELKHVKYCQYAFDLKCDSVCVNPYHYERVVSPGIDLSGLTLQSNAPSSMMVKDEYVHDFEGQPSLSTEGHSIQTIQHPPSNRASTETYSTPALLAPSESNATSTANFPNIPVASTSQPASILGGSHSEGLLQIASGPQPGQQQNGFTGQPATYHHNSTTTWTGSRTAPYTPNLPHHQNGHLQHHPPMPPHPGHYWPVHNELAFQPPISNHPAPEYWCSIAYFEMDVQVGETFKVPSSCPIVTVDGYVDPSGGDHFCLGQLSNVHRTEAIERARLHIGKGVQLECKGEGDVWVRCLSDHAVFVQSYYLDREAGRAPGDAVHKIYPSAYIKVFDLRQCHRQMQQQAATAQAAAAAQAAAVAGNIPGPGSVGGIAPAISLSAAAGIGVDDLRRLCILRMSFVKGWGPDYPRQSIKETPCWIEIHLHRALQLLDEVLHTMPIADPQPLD

B1: Flag-tagged SMAD3 WT, P84022 1-425 (natural protein)
chain: MSSILPFTPPIVKRLLGWKKGEQNGQEEKWCEKAVKSLVKKLKKTGQLDELEKAITTQNVNTKCITIPRSLDGRLQVSHRKGLPHVIYCRLWRWPDLHSHHELRAMELCEFAFNMKKDEVCVNPYHYQRVETPVLPPVLVPRHTEIPAEFPPLDDYSHSIPENTNFPAGIEPQSNIPETPPPGYLSEDGETSDHQMNHSMDAGSPNLSPNPMSPAHNNLDLQPVTYCEPAFWCSISYYELNQRVGETFHASQPSMTVDGFTDPSNSERFCLGLLSNVNRNAAVELTRRHIGRGVRLYYIGGEVFAECLSDSAIFVQSPNCNQRYGWHPATVCKIPPGCNLKIFNNQEFAALLAQSVNQGFEAVYQLTRMCTIRMSFVKGWGAEYRRQTVTSTPCWIELHLNGPLQWLDKVLTQMGSPSIRCSSVS
In the case of B1, the decrease of the PPI signal with 5'-FAM-SBE4 Mut dsDNA against WT dsDNA in assay [1] turned out to be 15%. In addition, the reduction of the PPI signal against SMAD4 WT in assay [2] and in assay [3] was 75% in each case.
